Consider one substance from patent publication US20180245121A1.

The target of assay [1] is FKBP-GDH(155-454AA) (Acinetobacter calcoaceticus) (UniProt P62942). As to the kind of experiment: self-reconstitution of split GDH fragments without ligand; method not described (GDH activity assay implied).
The target is the same in assay [2]. As to the kind of experiment: cell-based or functional assay.

Sequence of UniProt P62942 (P62942 2-108, tags or fused parts left off): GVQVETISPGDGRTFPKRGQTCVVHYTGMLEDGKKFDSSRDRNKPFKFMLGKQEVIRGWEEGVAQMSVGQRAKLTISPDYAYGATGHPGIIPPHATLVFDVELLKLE

One may read the Kd as the concentration at which binding is half-saturated. For the substance “GDH(1-153AA)-FRB (from UniProt P42345 2021-2113)”, in assay [1], the Kd was 50 to 100 nM. The GDH activity; observed rates on rapamycin titration fitted to a quadratic equation in assay [2] is 11 nM.
